# Publication PMC5133369 (Experimental & Molecular Medicine, 2016)
# Molecular target: RNA polymerase II (largest subunit, with its C-terminal domain) (Homo sapiens, UniProt P24928)
# Assay: far-Western, overlay or dot blot
row,Binder,binding result
1,"pCTD-2ndS2 scFv-Fc fusion protein (scFv, V domains shown) VH: EVQLVESGGGLVQPGGSLRLSCAASGFNIKDTYIHWVRQAPGKGLEWVARIYPTNGYTRYADSVKGRFTISADTSKNTAYLQMNSLRAEDTAVYYCSRDRAQWWEYKNAMDVWGQGTLVTVSS VL: not shown",binds
2,"pCTD-1stS5 scFv-Fc fusion protein (scFv, V domains shown) VH: EVQLVESGGGLVQPGGSLRLSCAASGFNIKDTYIHWVRQAPGKGLEWVARIYPTNGYTRYADSVKGRFTISADTSKNTAYLQMNSLRAEDTAVYYCSRGPWPGSHHKYAMDVWGQGTLVTVSS VL: not shown",binds
3,"pCTD-S7S5 scFv-Fc fusion protein (scFv, V domains shown) VH: EVQLVESGGGLVQPGGSLRLSCAASGFNIKDTYIHWVRQAPGKGLEWVARIYPTNGYTRYADSVKGRFTISADTSKNTAYLQMNSLRAEDTAVYYCSRDPWSRWAKVFDYWGQGTLVTVSS VL: not shown",binds
4,"pCTD-S7 scFv-Fc fusion protein (scFv, V domains shown) VH: EVQLVESGGGLVQPGGSLRLSCAASGFNIKDTYIHWVRQAPGKGLEWVARIYPTNGYTRYADSVKGRFTISADTSKNTAYLQMNSLRAEDTAVYYCSRGISYPWQRGYYYAMDVWGQGTLVTVSS VL: not shown",binds
5,"PanCTD scFv-Fc fusion protein (scFv, V domains shown) VH: EVQLVESGGGLVQPGGSLRLSCAASGFNIKDTYIHWVRQAPGKGLEWVARIYPTNGYTRYADSVKGRFTISADTSKNTAYLQMNSLRAEDTAVYYCSRYGRRGVFDYWGQGTLVTVSS VL: not shown",binds
6,"pCTD-1stS2 scFv-Fc fusion protein (scFv, V domains shown) VH: EVQLVESGGGLVQPGGSLRLSCAASGFNIKDTYIHWVRQAPGKGLEWVARIYPTNGYTRYADSVKGRFTISADTSKNTAYLQMNSLRAEDTAVYYCSRGAFWFSRSHFDYWGQGTLVTVSS VL: not shown",binds
